These results are taken from patent US8603949B2, “Libraries of optimized cytochrome P450 enzymes and the optimized P450 enzymes” (California Institute of Technology, priority 2003, dated 2013).

Data set [1] is described as follows: Library plate screen on five test substrates (4-AAP, 12-pNCA). Type of data set: biochemical. The note with it: seven-crossover library, cell lysate, 20 mM H2O2. The protocol:
These library plates were replicated and grown in 96 deep-well plates in 900 μL of LB media with 100 μg/ml ampicillin overnight at 30° C. and 250 rpm. 150 μL of this was then transferred to 850 μL of induction media (TB-media with final concentrations of 100 μg/ml ampicillin, 25 μg/ml thiamine, 0.5 mM δ-aminolevulinic acid and 0.6 mM IPTG). These were grown for 20-24 hours at 25° C. and 190 rpm, harvested by centrifugation at 5000×g for 8 minutes and frozen at -20° C. for at least 24 hours. Cells were resuspended using a pipetting robot (Multimek 96, Beckman) and lysed in 400 μL of Epps or Tris buffer (100 mM, pH 8.2) containing 0.8 mg/ml lysozyme and 2 units/mL DNaseI for 1 hour at 37° C. Plates were then spun for 8 minutes at 5000×g and 4° C. to pellet cell debris. 80 μL of lysate was transferred into 4 separate 96 well plates for each library plate. […] On one plate, high -throughput carbon monoxide spectroscopy was done in order to assess relative amounts of P450 (Otey, C. R. High-throughput carbon monoxide binding assay for cytochromes P450. In Directed Enzyme Evolution: Screening and Selection Methods, F. H. Arnold and […]. 137-139 (2003)) with 0.1 M sodium hydrosulfite being used in place of 0.4 M. The other three plates were used to assay activity on different substrates. Examples of assays that have been or could be used include the 4-AAP (Otey, C. R., and Joern, J. M. High-throughput screen for aromatic hydroxylation. In Directed Enzyme Evolution: Screening and Selection Methods, F. H. Arnold and […]. 141-148 (2003)), 12-pNCA (Schwaneberg et al., Anal. Biochem., 269:359-366 (1999), NBP assay ([…], et al., J Biomol Screen, 9:141-146 (2004)), 7-ethoxyresorufin (Sieber et al., Nat Biotechnol., 19:456-460 (2001)), vivid substrate assays (Marks et al., Assay Drug Dev Technol 1, 73-81 (2002); Marks et al., AAPS PharmSci 5, E18 (2003)), and purpald assays (Peters et al., J Am Chem Soc 125:13442-13450 (2003)). Since the heme domains were being used, the hydrogen peroxide was used to drive the reactions via the peroxide shunt (Cirino, P. C., and Arnold, F. H., Advanced Synthesis & Catalysis 344, 932-937 (2002)). The 4-AAP assay detects phenol-like compounds and consists of the addition of 40 μL of a 3.5× substrate solution (containing substrate concentrations dependent for each substrate) to 80 μL of lysate. […] Then a 7×(140 mM) H2O2 hydrogen peroxide solution was added resulting in a final concentration of 20 mM hydrogen peroxide. The reaction was mixed and left at room temperature without shaking for two hours and then quenched with 140 μL of 0.1 m NaOH and 4 M Urea. 38 μL of 0.6% 4-aminoantipyrine was added followed by blanking of the 96-well plate reader at 500 nm. 38 μL of 0.6% potassium persulfate was added and after 20 minutes the A500 was read. […]

Data set [2] is described as follows: Peroxygenase activity on allyloxy-benzene (4-AAP assay). The note with it: 50 mM substrate. In kind it is biochemical. As to the method: (§1) The chimeras were assayed for hydroxylation of p-nitrophenoxydodecanoic acid (12-pNCA), a fatty acid analog that is hydroxylated by CYP102A1 and CYP102A2 to yield p-nitrophenolate (Schwaneberg et al., Anal Biochem 269,359-366 (1999)). […] When hydroxylation rates for the parent CYP102 enzymes were monitored using the maximum soluble concentrations of these substrates, activity could only be detected on 2-phenoxy-ethanol.
Rates on 2-phenoxy-ethanol and allyloxy-benzene were determined using 2 μM enzyme, 20 mM H2O2, 1% DMSO, and 1% acetone in 100 mM N-[2-hydroxyethyl]piperazine-N′-[3-propanesulfonic acid] (Epps) (pH 8.2) at room temperature. Substrate concentrations for 2-phenoxy-ethanol (100 mM) and allyloxy benzene (50 mM) maintained saturation. Reactions were initiated by the addition of H2O2 and quenched at appropriate times using an equal volume of a solution containing 4M urea and 100 mM NaOH. 120 μl of 0.6% 4-AAP was added, followed by mixing and addition of 120 μl of 0.6% potassium persulfate. Color was allowed to develop for 20 minutes before absorbance was read at 500 nm. Rates were determined from the linear region of the time course. The major products were determined by GC/MS to be the hemiacetal, which decomposes to phenol. The extinction coefficient for the 4-AAP/phenol complex was determined to be 4,800 M^−1cm^−1. The results can be seen in FIG. 4.

Data set [3] is described as follows: Thermostability (loss of Soret band at increasing temperatures). Type of data set: physicochemical. The note with it: cell extracts heated 10 minutes. The procedure, abridged: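 Cell extracts heated 10 minutes at a range of temperatures, cooled to 4° C and centrifuged to remove precipitate. Remaining P450 quantified by carbon monoxide reduced difference spectroscopy, following loss of the CO/Soret peak with temperature.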

Data set [4] is described as follows: Peroxidase activity with ABTS and H2O2. Type of data set: biochemical. The note with it: for Peroxidase activity: 10 mM ABTS, 20 mM H2O2, pH 5.0, activities <0.2 not detectable (N.D.). The procedure, abridged: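 Initial peroxidase rates from ABTS radical cation accumulation at 414 nm: 1 μM enzyme, 10 mM ABTS, 200 mM phosphate pH 5.0, room temperature, started with H2O2 to 20 mM. Monitored 5 min; rate from steepest part of time course using ε 36,000 […].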

Data set [5] can be described thus: Peroxygenase substrate activity profile. Type of data set: biochemical. As to conditions: 20 mM H2O2. Put shortly: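 Peroxygenase rates were measured with H2O2 (20 mM) at room temperature and pH 8.2. For 12-pNCA (250 μM), 1 μM enzyme in Tris buffer was used, with initial p-nitrophenolate formation read at 410 nm over the first 6 s. For 2-phenoxy-ethanol (100 mM) and allyloxy-benzene (50 mM), 2 μM enzyme in EPPS buffer was used, reactions were quenched, phenol was detected by 4-AAP at 500 nm, and rates are in nmol product/nmol P450/min.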

Data set [6] can be described thus: Peroxygenase activity, hydroxylation of 12-pNCA. Type of data set: biochemical. As to conditions: 250 μM 12-pNCA. The protocol: as §1
This Example provides one method by which peroxygenase activity of a P450 enzyme may be characterized. First order rates for p-nitrophenolate accumulation were determined using 1 μM enzyme, 20 mM H2O2, 250 μM 12-pNCA and 0.5% dimethyl sulfoxide (DMSO) in 100 mM Tris-HCl (pH 8.2) at room temperature. Enzyme, substrate, buffer and DMSO were combined in a cuvette and zeroed at 410 nm. Reaction mixtures were incubated for 4 minutes and initiated by the addition of H2O2 to a final concentration of 20 mM. Initial rates were determined by monitoring the accumulation of p-nitrophenolate at 410 nm, and data from the first six seconds were used to determine initial rates. […] The extinction coefficient of p-nitrophenolate is 13,200 M^−1cm^−1 (Schwaneberg et al., Anal Biochem 269:359-366 (1999)).

“Also recorded” adds a separate entry of the source.

B1: A3: third parent P450 of the seven-crossover library (protein, listed as Bacillus subtilis)
chain: KQASAIPQPKTYGPLKNLPHLEKEQLSQSLWRIADELGPIFRFDFPGVSSVFVSGHNLVAEVCDEKRFDKNLGKGLQKVREFGGDGLATSWTHEPNWQKAHRILLPSFSQKAMKGYHSMMLDIATQLIQKWSRLNPNEEIDVADDMTRLTLDTIGLCGFNYRFNSFYRDSQHPFITSMLRALKEAMNQSKRLGLQDKMMVKTKLQFQKDIEVMNSLVDRMIAERKANPDENIKDLLSLMLYAKDPVTGETLDDENIRYQIITFLIAGHETTSGLLSFAIYCLLTHPEKLKKAQEEADRVLTDDTPEYKQIQQLKYIRMVLNETLRLYPTAPAFSLYAKEDTVLGGEYPISKGQPVTVLIPKLHRDQNAWGPDAEDFRPERFEDPSSIPHHAYKPFGNGQRACIGMQFALQEATMVLGLVLKHFELINHTGYELKIKEALTIKPDDFKITVKPRKTAAINVQRKEQA
In the case of B1, the “activity on test substrates incl. novel substrates (diphenyl ether, allyloxy-benzene)” value in data set [1] is “no activity towards any of the substrates tested”.

B2: Chimera 165-256: CYP102A1 heme domain with residues 165-256 from CYP102A2 (protein)
chain: TIKEMPQPKTFGELKNLPLLNTDKPVQALMKIADELGEIFKFEAPGRVTRYLSSQRLIKEACDESRFDKNLSQALKFVRDFAGDGLATSWTHEKNWKKAHNILLPSFSQQAMKGYHAMMVDIAVQLVQKWERLNADEHIEVPEDMTRLTLDTIGLCGFNYRFNSYYRETPHPFINSMVRALDEAMHQMQRLDVQDKLMVRTKRQFRYDIQTMFSLVDSIIAERRANGDQDEKDLLARMLNVEDPETGEKLDDENIRFQIITFLIAGHETTSGLLSFALYFLVKNPHVLQKAAEEAARVLVDPVPSYKQVKQLKYVGMVLNEALRLWPTAPAFSLYAKEDTVLGGEYPLEKGDELMVLIPQLHRDKTIWGDDVEEFRPERFENPSAIPQHAFKPFGNGQRACIGQQFALHEATLVLGMMLKHFDFEDHTNYELDIKETLTLKPEGFVVKAKSKKIPLGGIPSPST
modifications: Chimeric Cytochrome P450 heme group sequence from Bacillus megaterium and Bacillus subtilis
notes: CYP102A1 heme domain with residues 165-256 from CYP102A2
With B2, in data set [2], the “peroxygenase activity on allyloxy-benzene” value is listed as “highest rates”. The Tm in data set [3] is 48 °C. In data set [4], the Peroxidase activity is recorded as 16.1 nmol product/nmol P450/min. Moreover, the “peroxidase activity relative to parents” value in data set [4] (ABTS) was “significantly higher peroxidase activities”. The “substrate activity profile relative to parents” value in data set [5] was “broadest substrate specificity; also recorded: new activity; also recorded: active on all three substrates; also recorded: gained novel activity”.

B3: Chimera F37202: chimera of the CYP102A1/A2/A3 seven-crossover library (protein)
chain: KQASAIPQPKTYGPLKNLPHLEKEQLSQSLWRIADELGPIFRFDFPGVSSVFVSGHNLVAEVCDEERFDKSIEGALEKVRAFSGDGLATSWTHEPNWRKAHNILMPTFSQRAMKDYHEKMVDIATQLIQKWSRLNPNEEIDVADDMTRLTLDTIGLCGFNYRFNSFYRDQPHPFITSMVRALDEAMNKLQRANPDDPAYDENKRQFQEDIKVMNDLVDRMIAERKANPDENIKDLLSLMLYAKDPVTGETLDDENIRYQIITFLIAGHETTSGLLSFAIYCLLTHPEKLKKAQEEADRVLTDDTPEYKQIQQLKYIRMVLNETLRLYPTAPAFSLYAKEDTVLGGEYPISKGQPVTVLIPKLHRDQNAWGPDAEDFRPERFEDPSSIPHHAYKPFGNGQRACIGMQFALQEATMVLGLVLKHFELINHTGYELKIKEALTIKPDDFKITVKPRKTAAINVQRKEQA
modifications: Chimeric Cytochrome P450 heme group polypeptide sequence from CYP102A1 (Bacillus megaterium); CYP102A2 (Bacillus subtilis) and CYP102A3 (Bacillus subtilis)
notes: chimera of the CYP102A1/A2/A3 seven-crossover library
As for B3, in data set [1], the “activity on test substrates incl. novel substrates (diphenyl ether, allyloxy-benzene)” value is reported as “activity that is novel”.

B4: Chimera 169-197: CYP102A1 heme domain with residues 169-197 from CYP102A2 (protein)
chain: TIKEMPQPKTFGELKNLPLLNTDKPVQALMKIADELGEIFKFEAPGRVTRYLSSQRLIKEACDESRFDKNLSQALKFVRDFAGDGLATSWTHEKNWKKAHNILLPSFSQQAMKGYHAMMVDIAVQLVQKWERLNADEHIEVPEDMTRLTLDTIGLCGFNYRFNSFYRDTPHPFINSMVRALDEAMHQMQRLDVQDKLYDENKRQFQEDIKVMNDLVDKIIADRKASGEQSDDLLTHMLNGKDPETGEPLDDENIRYQIITFLIAGHETTSGLLSFALYFLVKNPHVLQKAAEEAARVLVDPVPSYKQVKQLKYVGMVLNEALRLWPTAPAFSLYAKEDTVLGGEYPLEKGDELMVLIPQLHRDKTIWGDDVEEFRPERFENPSAIPQHAFKPFGNGQRACIGQQFALHEATLVLGMMLKHFDFEDHTNYELDIKETLTLKPEGFVVKAKSKKIPLGGIPSPST
modifications: Chimeric Cytochrome P450 heme group sequence from Bacillus megaterium and Bacillus subtilis
notes: CYP102A1 heme domain with residues 169-197 from CYP102A2
With B4, in data set [6], the “peroxygenase activity on 12-pNCA” value is listed as “most active; also recorded: significant increase”. Besides, the Tm in data set [3] is 52 °C. The Peroxidase activity in data set [4] is on record as 100.3 nmol product/nmol P450/min. In data set [4] (ABTS), the “fold increase of peroxidase activity over the most active parent” value was “approximately 40 fold”; the “peroxidase activity relative to parents” value was “highest peroxidase and peroxygenase rates; also recorded: significantly higher peroxidase activities”. The “substrate activity profile relative to parents” value in data set [5] was “parent-like profiles”.
